Results as given in PMC6105031, “The crystal structure of KSHV ORF57 reveals dimeric active sites important for protein stability and function” (PLoS Pathogens, 2018).

B1: FLAG-tagged full-length ORF57 [Kaposi's sarcoma-associated herpesvirus (KSHV, HHV8)] / itself (parent complex)
chain: MVQAMIDMDIMKGILEDSVSSSEFDESRDDETDAPTLEDEQLSEPAEPPADERIRGTQSAQGIPPPLGRIPKKSQGRSQLRSEIQFCSPLSRPRSPSPVNRYGKKIKFGTAGQNTRPPPEKRPRRRPRDRLQYGRTTRGGQCRAAPKRATRRPQVNCQRQDDDVRQGVSDAVKKLRLPASMIIDGESPRFDDSIIPRHHGACFNVFIPAPPSHVPEVFTDRDITALIRAGGKDDELINKKISAKKIDHLHRQMLSFVTSRHNQAYWVSCRRETAAAGGLQTLGAFVEEQMTWAQTVVRHGGWFDEKDIDIILDTAIFVCNAFVTRFRLLHLSCVFDKQSELALIKQVAYLVAMGNRLVEACNLLGEVKLNFRGGLLLAFVLTIPGMQSRRSISARGQELFRTLLEYYRPGDVMGLLNVIVMEHHSLCRNSECAAATRAAMGSAKFNKGLFFYPLS

Variants of: B1
Test: in vitro crosslinking assay (DSS) with anti-FLAG Western blot; HEK293 cells, 0.5 μg plasmid for WT and 2 μg for mutant, DSS 50 μM for 30 min; lanes 14 (WT) and 16 (mutant); parent: 0.15

Row | Variant | screen value
1 | MVQAMIDMDIMKGILEDSVSSSEFDESRDDETDAPTLEDEQLSEPAEPPADERIRGTQSAQGIPPPLGRIPKKSQGRSQLRSEIQFCSPLSRPRSPSPVNRYGKKIKFGTAGQNTRPPPEKRPRRRPRDRLQYGRTTRGGQCRAAPKRATRRPQVNCQRQDDDVRQGVSDAVKKLRLPASMIIDGESPRFDDSIIPRHHGACFNVFIPAPPSHVPEVFTDRDITALIRAGGKDDELINKKISAKKIDHLHRQMLSFVTSRHNQAYWVSCAAETAAAGGLQTLGAFVEEQMTWAQTVVRHGGWFDEKDIDIILDTAIFVCNAFVTRFRLLHLSCVFDKQSELALIKQVAYLVAMGNRLVEACNLLGEVKLNFRGGLLLAFVLTIPGMQSRRSISARGQELFRTLLEYYRPGDVMGLLNVIVMEHHSLCRNSECAAATRAAMGSAKFNKGLFFYPLS [chain 1 R270A, chain 1 R271A] | 0.07
